Experimental data taken from publication PMC3942068, “Pharmacological characteristics and efficacy of a novel anti-angiogenic antibody FD006 in corneal neovascularization” (BMC Biotechnology, 2014).

Tests used:
[1] = molecular target: T1, Vascular endothelial growth factor (VEGF) (Homo sapiens (assumed), UniProt P15692-4); assay: cell-based or functional assay
[2] = molecular target: T1, Vascular endothelial growth factor …; assay: BLI; Octet RED; anti-human IgG biosensor pre-saturated with bevacizumab or FD006 (10 ug/ml); VEGF at 10, 3 and 1 ug/ml in solution; 30°C, PBS; association 5 min, dissociation 10 min; non-linear global fit; settings: both partners purified

T1 sequence (P15692 whole entry): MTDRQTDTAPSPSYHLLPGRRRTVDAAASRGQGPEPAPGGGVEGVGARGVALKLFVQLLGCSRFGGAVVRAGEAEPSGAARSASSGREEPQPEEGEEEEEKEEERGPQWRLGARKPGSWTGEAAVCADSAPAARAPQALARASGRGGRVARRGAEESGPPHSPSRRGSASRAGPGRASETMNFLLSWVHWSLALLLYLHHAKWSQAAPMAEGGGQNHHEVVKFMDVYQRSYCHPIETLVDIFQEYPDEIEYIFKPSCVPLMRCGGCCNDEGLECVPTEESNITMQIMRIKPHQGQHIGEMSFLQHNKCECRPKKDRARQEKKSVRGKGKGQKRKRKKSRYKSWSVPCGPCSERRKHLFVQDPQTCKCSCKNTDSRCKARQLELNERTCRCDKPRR

B1: FD006 (antibody, V domains shown)
VH: EVQLVQSGGGLVKPGGSLRLSCAASGFTLNASWIHWVRQAPGKGLEWVGAIYPYSGYSNYADSVKGRFTISADTSKNTLYLQMNSLRAEDTAVYYCARWGHSTSPYSAMDYWGQGTLVTVSS
VL: DIVMTQSPSSLSVSLGERVTITCRASQVLSRSLAWYQQKPGKAPKLLIYAASNVASGVPSRFSGSGSGTDFTLTISSLQPEDFATYYCQQSNTSPVTFGQGTKVEIK
notes: VH of FD006; heavy chain constant region of the full IgG; VL of FD006; light chain constant region of the full IgG; also called novel anti-VEGFA IgG; anti-VEGF monoclonal antibody FD006; source: recombinant vector transfected into mammalian cells, purified; prepared in our lab
- IC50 of inhibition of VEGF-induced proliferation of HUVEC (antibody pre-incubated with 10 ng/ml VEGF, 72 h, CCK8) [1]: ~0.031 µg/mL
- Kd [2]: 0.311 nM
- koff [2]: 4.59e-05 s⁻¹
- kon [2]: 148000 M⁻¹ s⁻¹
